The data set concerns the molecule itself. Put plainly: SDS-resistant oligomers on SDS-PAGE and western blot; PAE cells stably expressing the tagged transporter, vehicle (DMSO) or 20 µM AIM-100 for 2 hr at 37°C (also after cocaine, dopamine, amphetamine, modafinil, KRCA-0008, CHC siRNA, at 4°C or 20°C); lysis in TGH buffer, Laemmli buffer (2% SDS, 5% β-mercaptoethanol) 5 min at 95°C, 7.5% SDS-PAGE, blot with GFP antibody; oligomers (O) against monomers (M). (In general: In western blotting, separated proteins are transferred to a membrane and probed.)

B1: YFP-DAT additionally tagged with an extracellular hemagglutinin (HA) epitope (YFP-HA-DAT) (natural protein, human, UniProt Q01959 1-620, looked up)
chain: MSKSKCSVGLMSSVVAPAKEPNAVGPKEVELILVKEQNGVQLTSSTLTNPRQSPVEAQDRETWGKKIDFLLSVIGFAVDLANVWRFPYLCYKNGGGAFLVPYLLFMVIAGMPLFYMELALGQFNREGAAGVWKICPILKGVGFTVILISLYVGFFYNVIIAWALHYLFSSFTTELPWIHCNNSWNSPNCSDAHPGDSSGDSSGLNDTFGTTPAAEYFERGVLHLHQSHGIDDLGPPRWQLTACLVLVIVLLYFSLWKGVKTSGKVVWITATMPYVVLTALLLRGVTLPGAIDGIRAYLSVDFYRLCEASVWIDAATQVCFSLGVGFGVLIAFSSYNKFTNNCYRDAIVTTSINSLTSFSSGFVVFSFLGYMAQKHSVPIGDVAKDGPGLIFIIYPEAIATLPLSSAWAVVFFIMLLTLGIDSAMGGMESVITGLIDEFQLLHRHRELFTLFIVLATFLLSLFCVTNGGIYVFTLLDHFAAGTSILFGVLIEAIGVAWFYGVGQFSDDIQQMTGQRPSLYWRLCWKLVSPCFLLFVVVVSIVTFRPPHYGAYIFPDWANALGWVIATSSMAMVPIYAAYKFCSLPGSFREKLAYAIAPEKDRELVDRGEVRQFTLRHWLKV
notes: Dopamine transporter (DAT), human; Monomer runs at 95 kDa, SDS-resistant oligomer at about 290 kDa; also called dopamine transporter; human DAT; source: PAE cells, stably expressed, in lysate
One may read the stoichiometry N as the number of molecules, sites or subunits per partner or assembly. For B1, the “fold increase of the fraction of the ~290 kDa oligomer species with AIM-100 against vehicle” value is greater than 5 fold and the “stoichiometry N” value was roughly 3.

For the origin of these results see publication PMC5896956, “Small molecule induced oligomerization, clustering and clathrin-independent endocytosis of the dopamine transporter” (eLife, 2018).
